Earlier results as cited in paper PMC3037027.

Target: U2AF65 UHM (Homo sapiens) (UniProt P26368)
Test: ITC

Sequence of UniProt P26368 (P26368 372-475, one chain of several): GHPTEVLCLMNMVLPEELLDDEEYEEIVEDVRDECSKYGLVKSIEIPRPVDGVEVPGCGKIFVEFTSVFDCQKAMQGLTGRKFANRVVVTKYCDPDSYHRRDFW

Substance: SF1 1-255 (from UniProt Q15637)
- Kd: 12 nM
